# In publication doi:10.1101/415992:
# Biological target: Mps1-1 kinetochores (budding yeast) (UniProt P40568)
# Test: optical trap force-clamp flow assay
# Sequence of UniProt P40568 (P40568 whole entry, looked up): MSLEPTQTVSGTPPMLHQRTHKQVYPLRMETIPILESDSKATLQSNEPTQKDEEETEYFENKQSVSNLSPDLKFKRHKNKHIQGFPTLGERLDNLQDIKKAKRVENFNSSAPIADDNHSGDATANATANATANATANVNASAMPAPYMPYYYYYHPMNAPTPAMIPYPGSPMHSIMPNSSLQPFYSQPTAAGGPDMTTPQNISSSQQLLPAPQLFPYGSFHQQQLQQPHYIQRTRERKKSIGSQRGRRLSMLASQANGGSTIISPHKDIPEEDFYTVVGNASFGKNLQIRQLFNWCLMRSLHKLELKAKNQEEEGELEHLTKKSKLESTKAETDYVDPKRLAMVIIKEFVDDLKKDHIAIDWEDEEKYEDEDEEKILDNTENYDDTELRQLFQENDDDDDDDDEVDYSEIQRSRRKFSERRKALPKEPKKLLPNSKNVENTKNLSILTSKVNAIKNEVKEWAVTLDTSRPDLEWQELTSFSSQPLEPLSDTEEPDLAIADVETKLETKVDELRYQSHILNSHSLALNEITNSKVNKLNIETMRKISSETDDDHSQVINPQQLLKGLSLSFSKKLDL
substance,measurement,value
"dynamic microtubules (assembling and shortening tips of single, coverslip-anchored microtubules) (from UniProt Q6B856 1-445) (complex)","detachment rate (with 0.5 μM AurB*, 1.5 pN)",28.9 hr^-1
same,"detachment rate (with 0.5 μM AurB*, 5 pN)",7 hr^-1
same,"detachment rate (with 0.5 μM AurB*, ~1 pN)",4.6 hr^-1
same,"detachment rate (with 0.5 μM AurB*-KD, 1.5 pN)",10.4 hr^-1
same,"detachment rate (with 0.5 μM AurB*-KD, 5 pN)",7 hr^-1
same,"detachment rate (with 5 μM AurB*, ~1 pN)",7.2 hr^-1
